Test results taken from the Immune Epitope Database (IEDB).

Legend:
HLA-B*40:01 = test: IEDB peptide-MHC binding, purified MHC/competitive/radioactivity; filed as Kd, often an IC50 or EC50 that approximates it; ≥ and ≤ were set here for values at or beyond the usual limits of such assays
HLA-B*44:03 = test: as above
HLA-B*40:02 = test: as above
HLA-B*45:01 = test: as above
HLA-B*44:02 = test: as above
HLA-B*18:01 = test: as above
HLA-A*31:01 = test: IEDB peptide-MHC binding, purified MHC/direct/fluorescence; filed as Kd, often an IC50 or EC50 that approximates it; ≥ and ≤ were set here for values at or beyond the usual limits of such assays; conditions: source organism: SARS-CoV1
HLA-A*33:01 = test: IEDB peptide-MHC binding, purified MHC/competitive/radioactivity; filed as Kd, often an IC50 or EC50 that approximates it; ≥ and ≤ were set here for values at or beyond the usual limits of such assays; conditions: source organism: SARS coronavirus Tor2
HLA-A*68:01 = test: as above; conditions: source organism: SARS coronavirus Tor2
HLA-A*30:02 = test: as above; conditions: source organism: Mammarenavirus brazilense
HLA-A*24:02 = test: as above; conditions: source organism: Mammarenavirus brazilense
HLA-A*26:01 = test: as above; conditions: source organism: Mammarenavirus brazilense
HLA-A*29:02 = test: as above; conditions: source organism: Mammarenavirus brazilense
HLA-A*30:01 = test: as above; conditions: source organism: Mammarenavirus brazilense
HLA-A*23:01 = test: as above; conditions: source organism: Mammarenavirus brazilense
HLA-A*01:01 = test: as above; conditions: source organism: Mammarenavirus brazilense
HLA-A*32:01 = test: as above; conditions: source organism: Mammarenavirus brazilense
[1] = source organism: SARS coronavirus Tor2
[2] = source organism: Lymphocytic choriomeningitis virus (strain Armstrong)
[3] = source organism: Mammarenavirus choriomeningitidis
[4] = source organism: Mammarenavirus machupoense
[5] = source organism: Mammarenavirus juninense
[6] = source organism: Mammarenavirus brazilense
[7] = source organism: Mammarenavirus lassaense

Sequence: ADVFHLYLQY
- Kd (HLA-B*40:01; [1]): 16500 nM
- Kd (HLA-B*44:03; [1]): 147 nM
- Kd (HLA-B*40:02; [1]): ≥ 39800 nM
- Kd (HLA-B*45:01; [1]): 11400 nM
- Kd (HLA-B*44:02; [1]): 2420 nM
- Kd (HLA-B*18:01; [1]): ≥ 20700 nM

Sequence: AEILPDTTY
- Kd (HLA-B*40:01; [2]): 6010 nM
- Kd (HLA-B*44:03; [2]): 100 nM
- Kd (HLA-B*40:02; [2]): 14000 nM
- Kd (HLA-B*45:01; [2]): 1230 nM
- Kd (HLA-B*44:02; [2]): 97.8 nM
- Kd (HLA-B*18:01; [2]): 1410 nM

Sequence: AEIVDTVSA
- Kd (HLA-B*40:01; [1]): 396 nM
- Kd (HLA-B*44:03; [1]): 1640 nM
- Kd (HLA-B*40:02; [1]): 73.5 nM
- Kd (HLA-B*45:01; [1]): 8.59 nM
- Kd (HLA-B*44:02; [1]): 1930 nM
- Kd (HLA-B*18:01; [1]): 8190 nM

Sequence: AELLPDTTYL
- Kd (HLA-B*40:01; [3]): 9780 nM
- Kd (HLA-B*44:03; [3]): 1210 nM
- Kd (HLA-B*40:02; [3]): 167 nM
- Kd (HLA-B*45:01; [3]): 17300 nM
- Kd (HLA-B*44:02; [3]): 561 nM
- Kd (HLA-B*18:01; [3]): ≥ 70400 nM

Sequence: AENVIVGLV
- Kd (HLA-B*40:01; [4]): 2930 nM
- Kd (HLA-B*44:03; [4]): 340 nM
- Kd (HLA-B*40:02; [4]): 30 nM
- Kd (HLA-B*45:01; [4]): 3.39 nM
- Kd (HLA-B*44:02; [4]): 142 nM
- Kd (HLA-B*18:01; [4]): ≥ 77500 nM

Sequence: AETGSQGVY
- Kd (HLA-B*40:01; [5]): 15900 nM
- Kd (HLA-B*44:03; [5]): 228 nM
- Kd (HLA-B*40:02; [5]): 638 nM
- Kd (HLA-B*45:01; [5]): 211 nM
- Kd (HLA-B*44:02; [5]): 271 nM
- Kd (HLA-B*18:01; [5]): 6630 nM

Sequence: AEVEWKFYDA
- Kd (HLA-B*40:01; [1]): 8440 nM
- Kd (HLA-B*44:03; [1]): 90.5 nM
- Kd (HLA-B*40:02; [1]): 4690 nM
- Kd (HLA-B*45:01; [1]): 5.54 nM
- Kd (HLA-B*44:02; [1]): 79 nM
- Kd (HLA-B*18:01; [1]): 1540 nM

Sequence: AVDPAKAYK
- Kd (HLA-A*31:01): 293 nM
- Kd (HLA-A*33:01): 3420 nM
- Kd (HLA-A*68:01): 553 nM

Sequence: CEKALKYLPI
- Kd (HLA-B*40:01; [1]): 6970 nM
- Kd (HLA-B*44:03; [1]): 1150 nM
- Kd (HLA-B*40:02; [1]): 30.3 nM
- Kd (HLA-B*45:01; [1]): 104 nM
- Kd (HLA-B*44:02; [1]): 127 nM
- Kd (HLA-B*18:01; [1]): ≥ 29100 nM

Sequence: CEMNHVNSM
- Kd (HLA-B*40:01; [6]): 2970 nM
- Kd (HLA-B*44:03; [6]): 963 nM
- Kd (HLA-B*40:02; [6]): 67 nM
- Kd (HLA-B*45:01; [6]): 214 nM
- Kd (HLA-B*44:02; [6]): 178 nM
- Kd (HLA-B*18:01; [6]): 467 nM

Sequence: DEADLDEILL
- Kd (HLA-B*40:01; [7]): 18100 nM
- Kd (HLA-B*44:03; [7]): ≥ 26900 nM
- Kd (HLA-B*40:02; [7]): 5930 nM
- Kd (HLA-B*45:01; [7]): ≥ 45000 nM
- Kd (HLA-B*44:02; [7]): ≥ 45600 nM
- Kd (HLA-B*18:01; [7]): 1700 nM

Sequence: FDAAVMGGF
- Kd (HLA-B*40:01; [7]): ≥ 32300 nM
- Kd (HLA-B*44:03; [7]): 18400 nM
- Kd (HLA-B*40:02; [7]): 5230 nM
- Kd (HLA-B*45:01; [7]): ≥ 77700 nM
- Kd (HLA-B*44:02; [7]): ≥ 27400 nM
- Kd (HLA-B*18:01; [7]): ≥ 39800 nM

Sequence: FEHIVYGDF
- Kd (HLA-B*40:01; [1]): 7140 nM
- Kd (HLA-B*44:03; [1]): 13100 nM
- Kd (HLA-B*40:02; [1]): 782 nM
- Kd (HLA-B*45:01; [1]): ≥ 22300 nM
- Kd (HLA-B*44:02; [1]): 1870 nM
- Kd (HLA-B*18:01; [1]): 1260 nM

Sequence: FEIDKGIYQT
- Kd (HLA-B*40:01; [1]): 738 nM
- Kd (HLA-B*44:03; [1]): 11800 nM
- Kd (HLA-B*40:02; [1]): 47.3 nM
- Kd (HLA-B*45:01; [1]): 3100 nM
- Kd (HLA-B*44:02; [1]): ≥ 56500 nM
- Kd (HLA-B*18:01; [1]): 6400 nM

Sequence: GDEALTGFL
- Kd (HLA-B*40:01; [4]): 908 nM
- Kd (HLA-B*44:03; [4]): ≥ 78100 nM
- Kd (HLA-B*40:02; [4]): 2990 nM
- Kd (HLA-B*45:01; [4]): ≥ 22600 nM
- Kd (HLA-B*44:02; [4]): 13800 nM
- Kd (HLA-B*18:01; [4]): 5820 nM

Sequence: GENAVIPKG
- Kd (HLA-B*40:01; [1]): ≥ 76200 nM
- Kd (HLA-B*44:03; [1]): 2230 nM
- Kd (HLA-B*40:02; [1]): 907 nM
- Kd (HLA-B*45:01; [1]): 828 nM
- Kd (HLA-B*44:02; [1]): 2030 nM
- Kd (HLA-B*18:01; [1]): ≥ 77500 nM

Sequence: GERSRCYSLY
- Kd (HLA-A*30:02): 718 nM
- Kd (HLA-A*24:02): ≥ 70300 nM
- Kd (HLA-A*26:01): ≥ 69700 nM
- Kd (HLA-A*29:02): 14400 nM
- Kd (HLA-A*30:01): 5430 nM
- Kd (HLA-A*23:01): ≥ 70000 nM
- Kd (HLA-A*01:01): ≥ 26700 nM
- Kd (HLA-A*32:01): ≥ 69900 nM
